Results reported in patent publication US12697350B2, “Methods and compositions for treating a premature termination codon-mediated disorder” (Tevard Biosciences, Inc., priority 2019, dated 2026).

Test system: EGFP-R96X-TGA reporter
Test: 100 nt 5′ leader sequence library with ArgTCA suppressor tRNA #115, EGFP-R96X-TGA reporter, Flp-In-293 cells (FIGS. 28, 29, 32)
Type: cell-based, human
Source text: FIG. 27 is a schematic representation of the constructs used to test the impact of a 5′ leader sequence on the read-through of a premature termination codon (PTC) by a suppressor tRNA. Constructs contain (i) a 100 bp 5′ leader sequence derived from genomic DNA located upstream of tRNA genes that are highly expressed in HEK293 cells, (ii) a single copy of either the ArgTCA suppressor tRNA #115 (SEQ ID NO: 18) or the GlnTTA suppressor tRNA #163 (SEQ ID NO: 45), and (iii) an RNA polymerase III termination signal (“Term”).
FIG. 28 is a graph depicting the readthrough activity of the indicated ArgTCA suppressor tRNA expression constructs as measured by flow cytometry in Flp-In-293 cells at ~24 hours post transfection. […]
FIG. 29 is a graph depicting the readthrough activity of the indicated ArgTCA suppressor tRNA expression constructs as measured by flow cytometry in Flp-In-293 cells at ~24 hours post transfection. […]
The leader sequences in combination with the ArgTCA suppressor tRNA #115 (SEQ ID NO: 18) or the GlnTTA suppressor tRNA #163 (SEQ ID NO: 45) were tested for PTC readthrough activity by flow cytometry in cell lines co-transfected with an EGFP-R96X-TGA reporter (SEQ ID NO: 31) for ArgTCA constructs or an EGFP-Q69X-TAA reporter (SEQ ID NO: 175) for GlnTTA constructs.

B1: tRNA-Arg-TCT-2-1-TCA-SUP_no intron (nucleic acid)
chain: GGCTCCGTGGCGCAATGGATAGCGCATTGGACTTCAAATTCAAAGGTTCCGGGTTCGAGTCCCGGCGGAGTCG
modifications: chemistry not fully specified
  readthrough activity when combined with the identified leader sequences: showed high readthrough activity
